In general, stoichiometry N refers to a count of units in the complex or per binding partner.

Among the data in PMC11077065 are stoichiometry N values, retold here.

Assay [1] addresses PhiPA3 ChmC (Chimallin C, gp61), full-length (bacteriophage PhiPA3). In words: SEC-MALS. In general terms: Size exclusion chromatography separates by hydrodynamic size, large species first.
The target of assay [2] is PhiPA3 ChmC-ΔC (residues 204-251 removed) (bacteriophage PhiPA3). In words: SEC-MALS.

Take “PhiPA3 ChmC (Chimallin C, gp61), full-length (natural protein)”: the stoichiometry N in assay [1] was found to be 4. Substance “PhiPA3 ChmC-ΔC (residues 204-251 removed) (domain or fragment)” registered a stoichiometry N in assay [2] of 4.
